Test results reported in a protein production outcome set (Wang et al. 2014).

Assay: label from the status in PepcDB records

Sequence	protein production
MRIIAITEKVIKELFRDKRTLAMMFLAPILIMFLMNVMFSANSNTKVKIGTINVNTKVVSNLDNIKHIQVRSFKFNSSAKKALKSNKIDALISEDNKSYTVFYANTDSSKTTLTRQAFKTAVNTMNSKELISQVKILANKNPKLAQSLQTRSKYIKEKYNYGNKNTGFFAKMIPILMGFMVFFFVFLISGMALLKERTSGTLDRLLATPVKRSDIVFGYMLSYGILAIIQTIVIVLSTIWLLDIQVVGSIFSVIIVNFILALVALSLGILMSTLAKSEFQMMQFIPLIIMPQLFFSGIIPLENMASWAQTVGKILPLSYSGDALTKIIMYGQGLPNVSSNLLVLLLFLIILTIANIFGLKRYRKV	failed
MEKPDINVAEAWEQYWNKTLVNATPVLWDANVERAVVVDLPRFQSFFDTELPLIDFACGNGTQTKFLSQFFPRVIGFDVSKTALEMASKENTAANISYRLLDGLVPEQAAQIHSEIGDANIYMRTGFHHIPVEKRELLAQSLRTLLGKQGVMYLIELGTGCIEFFNSLLEKYGKLPYELSLVMEHGIRPGIFTTEDIELYFPDFEILSQGESLFQSIHKLPDGNYATPPAFWAVIKRHLEHHHHHH	not failed
MKLKDDPDIIRWINSRPRQALFASVAMVISTMSIGLFKGFDMWTADFFIFSCLLIGFGLLVGWLQKIYYKKVIFEENSDR	failed
YKELDVHLRRMESGFGFRILGGDEPGQPILIGAVIAMGSADRDGRLHPGDELVYVDGIPVAGKTHRYVIDLMHHAARNGQVNLTVRRKVL	not failed
MLFKRPDTETLYFALVNKDPAYEGVAYVCVTSTKIFCRFTCTARKPKIENCRFRETITECLEAGFRPCKRCKPMLSYGTPDGTVTALLTALENEPARRWREEDVVALGHDPSTVRRSFKRRFGMSFLEIARLRRVGDAAESLASGEAVIGAQIDAGYESGSGFRSAINQLFGTSPAAMKGRGFLKGDWIDTPIGPMLAVADDHALHLLEFADRPALPAELKRLKARTGADMVLGRTAVTGQIAAELAAYFAGRSGSFETRLAGHGTPFERDVWRNLREIPAGEIVSYSSLATAMERPTAVRAVARANGANQLAIVVPCHRVLGADGSLTGYGGGLWRKKWLIEHERRMARGLEHHHHHH	not failed
MIIYILINIAIVLLILGFDLYRHRFRQLKFSSILLSVLINSMIDIFAINQFNFITMFTVTLFMIWTLLQIYLNFKLYPFVISDQKFIAIILAIVISLLQFITDKSSTQSVYMSIPYLSPTIFIIGAILLFVGTFKIDEVERLSLFRKIKRPMTTGTIIIILSLISTMILTPFWYVFLIIYSLLIGFILWQGVFFIKDKK	failed
MRSTVAEPPVLDKIIKNVRVVRPHNDAVELLDIGIKDGKFAQIAPNITPDTGQEIFDAKNLLGFPGVVDAHMHIGIYQPLDKDAVTESKAAAMGGVTTSLNYIRTGQYYLNKGGSYRDFFPEVLALSAGNFFVDYSYHVAPIASQHIDEIPLLFEEHGVTSFKIFMFYGGYGLHGLSDQQNLFLMINKEERYDFAHFEFIMRGVTRLMAEYPEARDYISLSLHCEVAEILNAYTKIVENDSSLSGLHAYSAARPPHSEGLAISIAAYLAHETNCANINLLHLSSRKAMEAALIMQTAFPHINFRREVTVGHLLLDVDTPNGTWAKVNPPIRPRADVEYLWQAVLNHQVDWIVSDHACCSAEQKRSAKDPNNIWLAKSGFGGTEYLLSGVVSEGSKRGMSYNHMAKLLSWNPSRRFGLLTKGDIAIGYDADLVLVDPNESFVVRAAESESQQGYTPFEGMELTGRVKSTFLRGSLIYHNGQVLGSPNGRYVRRSLGG	failed
MKPLHLKLNNFGPFLKEEIDFSKIDNNELFLISGKTGSGKTMIFDAMTYALFGKASTEQREENDLRSHFADGKQPMSVTFEFQLNHRIYKVHRQGPYIKEGNTTKTNAKFDVFEMVDGKYEIRESKVISGTQFIIELLGVNADQFRQLFILPQGEFKRFLISNSREKQGILRTLFDSEKFEAIREILKEELKKEKAQIENRYQQIDLLWQEIESFDDDKIKGLLELAT	failed
HAATAAEPPTAPTPPTQPAEGPGGADYRHASVHQWHFGEGAREYWVFTPEQPVPGNAPLVIFLHGWSVMQPDLYRAWIDHIVRRGMVVVYPRYQPDLKTPNAAFLDNAAGALGDALRRLQAGELGVRPRLNQVAYLGHSAGGLLAANLAAASERLK	failed
MHSEMTVPGFETRLAKVQDVWRDNRCLKSSSIGQYLYWIHRFHHYCIAEALDADEQLTQAGVSLFAQWYARQRRVDAECACQGAQSALRAWALGLSTLGVEIPPWQCDTDRTSESEPRLQDFAEHLRQHRGNPEATIKKKLAHIRCFLAFIAARHRPLRHLKLTDIDAFLVDCSQRYARTTTADIGSSLRGYVRFLLVTGQVTADLAPSIVTPIVRHYEQPLRALPWDDVRHILAAIDRSSPIGLRDYALLLLMSTYGLGAGEVIRLTLDDIDWQAATLRVVRPKTGVAFVLPLLPALAQALADYLKHGRPRRAPSRHVFQSMRAPHYPLSESSAIRHILVGHARKAGVTAAYLGSHVLRHTHACRQVEQEISPKVLSDILGHRSPESLSAYVRIATERLRQLPLPVPE	failed
MIRPTVQENFSRYADCIAACNAAAAACLKCAAACLEEPDTRKMTRCIALDMDCAGIANLAASYMLRNSEFAPLVCEDCAEVCKWCKEECERYDHWHCQECAKACAACMEMCLKMTA	failed
MKRFQKQILLRRILQMDYKQIAKEVIEALGGRENVNSVAHCATRLRVMVKDENKINKEKAENIEKVQGAFFNSGQYQMIFGTGTVNKIYDEVVAQGLPTASKDEQKAEAAKQGNWFQRAIRSFGDVFVPLLPAIVATGLFMGIRGAINNDTVLALFGTTSKAFAATDFYTYTVVLTDTAFAFFPALICWSAFNVFGGSPLLGLVLGLMMVNNALPNAWDVVSGAAKPIYFFDFIPVVGYQNSVLPAFFVGLIGAKFEQWVRKWVPDVLDLLLRPLVVFAVMSALALFIIGPVFHTVESYVLAGTEWILALPFGLAGLVLGGIHQIIVVTGVHHVFNLLEANLISNTGKDPLNAIITAAMTAQAGATLAVGVKTKDSKLKALAFPASLSAVLGITEPAIFGVNLRFGKPFIMGLIAGAAGGWLASILNLAGTGFGVTIVPGTLLYLNGQVLKYVIMVLVTLALGFALTWIFGYKEEEVEAQTEVVAEDIASAGSAPVALQAETIAAPLKGEVVALENVNDPVFSSGAMGKGAAIKPSGNRVVAPFDGEVQIAFPTGHAYGLKSDKGAEVLIHIGIDTVSLDGKGFDAKVQANQRVKKGDVLATFDSSVITEAGLDDTTMVIVTNTADYEDVSLVATGSVAEGGDFIAVK	failed
STRFPGVAIYLVEPRMGRSRRAFLTGLARSKGFRVLDACSSEATHVVMEETSAEEAVSWQERRMAAAPPGCTPPALLDISWLTESLGAGQPVPVECRHRLEVAGPRKGPLSPAWMPAYAC	not failed
MTVTLKNDYLTVQINEKGAELSSVKANDGIEYIWQADPAVWGRHAPVLFPFVGRLKDDQFQVEDQTYPMGQHGFARDMDFEAVEQDDQHVIMELNSDTETLQKFPFEFKLRLHFTLKDHELIEHYEVVNPDSKKDLLFSIGGHPGFNLNLGDNQIQMEDTHIRIAPKQVYNQIPLKAPYTDPKNPIKFDATTPLDLTHALFKDDAIILDLKGEQITLMTENEVNNHGIAFTVANAPYLGIWSPYPATANFVCLEPWWGIADTVNFNGELKDKLGVNRLAAQETFNQEFSMSFF	failed
MQQYAPTIQRALLFGLLIILLLLGFHILKYFIVPVVWAAIIAYMTWPIYIGIQRFCGENRPNLSATLMISLIILVIGIPLTFAVFMLQHEGRNLFIELQQQIFSGHLSAPDFIRELPLVGNEITRILNEINTNPSNLTQNLSLWIQSHMGYGRFVLSEISKNLVKLCFALLSLFFFYRDGHTILNQVSKALEMVIGPRIHHYMDTISETTRAVVYGVGLTAVAQAILAGLSYFVAGVPNPMVLTIVTFLLALIPFGTPLAYTSVALWLFSQGQMMGAIGVMLWGVCIVSTSDNVIRPLVISGATQIPFLLIMFGVLGGLASFGLVGLFIGPVILAILLAIWREWLHENIEPEPVPKATLIYDDLDDQTKL	failed
MSLQENISVTDSYSTGNAAQAMLEKLLQIYDVKMLVAQLNGVGENHWSAAILKRALANDSAWHRLSEKEFAHLQTLLPKPPEHHPHYAFRFIDLFAGIGGIRRGFESIGGQCVFTSEWNKHAVRTYKANHYCDPATHHFNEDIRDITLSHQEGVSDEAAAEHIRQHIPEHDVLLAGFPCQPFSLAGVSKKNSLGRAHGFACDTQGTLFFDVVRIIDARRPAMFVLENVKNLKSHDKGKTFRIIMQTLDELGYDVADAEDNGPDDPKIIDGKHFLPQHRERIVLVGFRRDLNLKADFTLRDISECFPAQRVTLAQLLDPMVEAKYILTPVLWKYLYRYAKKHQARGNGFGYGMVYPNNPQSVTRTLSARYYKDGAEILIDRGWDMATGEKDFDDPLNQQHRPRRLTPRECARLMGFEAPGEAKFRIPVSDTQAYRQFGNSVVVPVFAAVAKLLEPKIKQAVALRQQEAQHGRRSREGHHHHHH	not failed
MQAETNSAPLAAALYMIAAMSIIGVIDNYVIRLAESIGLWQFHFMRSLMMLPLVGLMSLMGLGGLFPRRKGWVLLRSLLLTVAMLFYFSALAFMPIAQALAGLFTSPIFVLLVTAFGLRQRIGPWRILAVLMGFAGILFVLQPDPGAFDATVLIPVAGGFFYALGAVVTRRHCAGESTAALLGAMVTALGLTGLGGLIWLALFPATPLPGPDGFVARGWVWPMAEAMPWVALQAVGSATAVFMLIRAYQLGEPSYVSVFEFSVMIFGPLFAWVVLGVGLGPWQMLGIGLIVLAGAIIALRSG	failed
MAICESGALPSHVGALSYSGGAASSFFGRRNADGLNDKWLALRDAFRAAGGDLLAIEDARSAALDFVIHVNAHRLRHDVPAFVILAESEFIHPPNVDWRMLQQYKGIFTWMPDLVRRGIGTEICLAHPLGAGVVDGYQERPQLLVMIASNKALPVWRPAVDLYRERVRAIRWFEKHAPQAFALYGHDWDKSPRLPTPLGGIVHGVEFVLPWRLQWFPSWKGVIPSKREVLRHARFSLCYENVRGLRGYITEKIFDAFCAGNVPVYWGAEDITDYIPADCFIDRRAFGDYADLYRYLTSMPETRYIQYQQAICDFLVSPAAKRFSSEIFATTIVGKVLDTLGRRDELEHHHHHH	failed
HFPINTLLLMRATTGVQLRLPERFGEFLDCLFRALWVDKRNLNDPATITQVLEQGGFDPQQILDLSNDEEVKAALKDKTEQALQKGVFGAPSMFVGDELFFGQDRLDFVREALNA	failed
MRQVFSTDQEYKADKSPENLFPLTEVTRKMEYEERFDQAVRVTGVGLFVNLGLTIFKLLAGILGNSTAMVADAVHSLSDFLTDVVVIFGFKIAKKPVDESHNYGHGKIETLSASLVGLMLLLVAGQILYYGVQKTLMFIEAGTLEQPAIIALYAALASVISKEIMYQYTILKARKINSMALTANAWHHRSDAFSSFCTMIGIGAAVFLGGKWVVLDPLMAVFLSFIILKVSLKIFHSSINELVEASLDEKTESEIRQIIQKTEGVKALSNLKTRRIGNNIAVDIRIKVDNALDIGEANRISIHVEHNLKKAFGPYTYVLVKAEPYEREPWGNPEDEKAREHPVNPEKNKVCLRNHSN	failed
MRRQAEAYKAQLAAMVESSDDAIIVKDLNAIITSWNAGAERIFGYQASEITGSSILALIPPERHEEEKGIMSLVKSGNRVDHFETMWWGKGKKPIDVSVTTSAVKDSDGNIVGISQIARDLEHHHHHH	failed
MEELVGLLRIRVKRGINLAQRDTLSSDPFVVITMGSQKLKTRVVENNCNPEWNEELTLALRHPDEPVNLIVYDKDTFTSHDKMGDAKIDIKPFLEVHKMGLQELPDGTEIKRVVPNRENCLAEASSIVSNNGKIVQNMILLLRNVECGEVEIQLEWIDIPGSRGL	failed
